This is an account of results in US20160031977A1 (BETH ISRAEL DEACONESS MEDICAL CENTER, published 2016).

Square brackets hold non-standard residues; d marks the D form. Ends that are not written are not given here. pT = C[C@@H](OP(=O)(O)O)[C@H](N)C(=O)O

The assay addresses T1, pT231-tau peptide locked in trans (pT231-Ala).
T1 construct: also called trans pT231-tau peptide
T1 peptide: KVAVVR[pT]APKSPS
The assay can be described thus: ELISA, hybridoma culture supernatant on peptide. The method, then: To develop cis and trans pT231-tau mouse mAbs, 74% cis pT231-Pip tau peptide as described previously in Nakamura et al., Cell 149: 232-244, 2012 was used to immunize mice. The procedure produced 480 hybridoma clones that were then characterized. […] The nucleic acid and protein sequences including the CDRs of the mAb heavy chain and light chain are shown below. […] The DNA sequences of the heavy and light chains of the mAbs were determined using 5′ RACE RT-PCR techniques, as described in Bradbury et al., Neurobiol Aging 16:465-475, 1995. […] Predicted protein sequences are highly conserved in Framework regions, with clear differences in complementary determining region (CDR) 1-3 (FIGS. 8 and 9).

B1: Cis mAb-#113 (antibody, V domains shown)
VH: QVQLQQPGAELVKPGASVKMSCKASGYTFTSYWIHWVKQRPGQGLEWIGVIDPSDSYTRYNQKFKGKATLTVDTSSSTAYMQLSSLTSEDSAVYYCTTWEVDYWGQGTTLTVSS
VL: DVVMTQTPLSLPVSLGDQASISCRSSQSLVHSDGNTYLHWYLQKPGQSPKLLIYKVSNRFSGVPDRFSGSGSGTDFTLKISRLEAEDLGVYFCSQSTHVPWTFGGGTKLEIKR
notes: Mouse monoclonal antibody from a hybridoma, screened as culture supernatant; also called cis pT231-tau mouse mAb
Consider B1, for which the binding result is listed as “no binding”.

B2: Cis mAb-#74 (antibody, V domains shown)
VH: DVQLQESGPGLVKPSQSLSLTCSVTGYSITSGYYWNWIRQFPGNKLEWMGYISYDGSNNYNPSLKNRISITRDTSKNQFFLKLNSVTTEDTATYYCAGLRRDAYWGQGTLVTVSA
VL: DIQMTQTTSSLSASLGDRVTISCRASQDISNYLNWYQQKPDGTVKLLIYYTSRLHSGVPSRFSGSGSGTDYSLTISNLEQEDIATYFCQQGNTLPWTFGGGTKLEIKR
notes: Mouse monoclonal antibody from a hybridoma, screened as culture supernatant; also called cis hybridoma clone #74; cis pT231-tau mouse mAb
In the case of B2, the binding result is on record as “no binding”.
